We go through one substance from patent US6531296.

Data set [1] has as its system QAg mutant with tyrosine 463 changed to phenylalanine.
Data set [2] relates to QAg mutant with tyrosine 490 changed to phenylalanine.
Data set [3] relates to QAg mutant with tyrosine 450 changed to phenylalanine.
Data set [4] has as its system QAg mutant with tyrosine 497 changed to phenylalanine.
Data set [5] has as its system QAg, hexahistidine fusion protein of the carboxy-terminal 62 amino acids of Rak.

Sequence of p50^csk, cytoplasmic tyrosine kinase CSK purified from baculovirus-infected insect cells (P41240 whole entry): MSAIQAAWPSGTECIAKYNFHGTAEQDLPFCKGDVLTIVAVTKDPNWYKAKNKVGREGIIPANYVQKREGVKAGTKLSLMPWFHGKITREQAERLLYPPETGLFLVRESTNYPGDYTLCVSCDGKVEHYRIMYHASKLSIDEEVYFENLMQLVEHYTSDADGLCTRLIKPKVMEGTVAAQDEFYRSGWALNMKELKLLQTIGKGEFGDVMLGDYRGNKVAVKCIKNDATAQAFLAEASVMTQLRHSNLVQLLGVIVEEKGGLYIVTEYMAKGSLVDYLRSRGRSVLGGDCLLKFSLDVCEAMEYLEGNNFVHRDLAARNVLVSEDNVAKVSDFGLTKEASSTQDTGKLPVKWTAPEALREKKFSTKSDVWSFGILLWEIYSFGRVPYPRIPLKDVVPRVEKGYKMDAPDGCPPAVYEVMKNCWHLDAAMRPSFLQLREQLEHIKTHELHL

As for “p50^csk, cytoplasmic tyrosine kinase CSK purified from baculovirus-infected insect cells”, the “phosphorylation by CSK (in vitro kinase assay)” value is “The mutant at position 463 was phosphorylated at levels equivalent to the wild-type peptide” in data set [1]; “Phosphorylation of the 497 mutant, however, was barely detectable” in data set [4]; “This peptide was readily phosphorylated by CSK” in data set [5]. Moreover, the phosphorylation by CSK (in vitro kinase assay) (fraction of wild-type peptide) in data set [2] and in data set [3] was 0.5 each time.
